Reference: US20220281959A1 (DIACCURATE, published 2022)
Ends that are not written are not given here.

Columns and labels:
[1] = biological target: T1, HIV-1 MN gp41 recombinant protein produced in E. coli (565-771Delta642-725) (HIV-1 MN); test: ELISA, hybridoma supernatant 1/10, coated MN gp41
T1 construct: range 565-771; Residues 642-725 are deleted; also called MN gp41 (produced in E. coli); MN gp41 protein

[2] = biological target: T1, HIV-1 MN gp41 recombinant protein …; test: ELISA, hybridoma supernatant pure, coated MN gp41
[3] = biological target: T2, BSA-PEP3 peptide (HIV-1 MN strain, also: conjugated to BSA); test: ELISA, hybridoma supernatant 1/10, coated BSA-PEP3
T2 construct: The KLH immunogen carried an added N-terminal Cys
T2 peptide: PWNASWSNKSLDDIW

[4] = biological target: T2, BSA-PEP3 peptide; test: ELISA, hybridoma supernatant pure, coated BSA-PEP3
[5] = biological target: T3, HXB2 gp41 recombinant protein (a.a. 534-681) (HIV-1 HXB2, UniProt P04578 534-681); test: sandwich ELISA, mAb capture, gp41 titrated, biotinylated goat pAb detection
T3 construct: Bought; tags not described; also called ABIN1605865

[6] = biological target: T3, HXB2 gp41 recombinant protein (a.a. …); test: sandwich ELISA, 72D7 capture 10 µg/ml, HXB2 gp41 titrated, biotinylated 4G1 detection 20 µg/ml

B1: anti-PEP3 mAb 15B4 (antibody, V domains shown)
VH: QVQLQQSGPELVRPGTSVKISCKAPGYSFTSHWMQWLRQRPGQGLEWIGEIFPGSGKTYYNEKFKDKATLTADTSSTTVYMQFSSLTSEDSAVYFCASDYDGGDYWGQGTTLTVSS
VL: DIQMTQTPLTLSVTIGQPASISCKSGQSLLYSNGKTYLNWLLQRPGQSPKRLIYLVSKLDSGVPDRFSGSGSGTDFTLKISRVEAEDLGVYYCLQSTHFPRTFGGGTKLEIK
ELISA screening signal [1]: 1.45
ELISA screening signal [2]: 1.81
ELISA screening signal [3]: 2.59
ELISA screening signal [4]: 2.73
minimal amount of gp41 detected [5]: > 10 ng/mL

B2: anti-PEP3 gp41 mAb 4G1 (antibody, V domains shown)
VL: DVVMTQTPLSLCVSLGDQASISCRTSQSIVHSNRYTYLEWYLQKPGQPLKLLIYGIANRFSGVPDRFSGSGSGTDFTLKISRVEAEDMGVYYCLQGTHVPFTFGSGTKLEIK
V domain: QVQLQQPGAELVKPGASVKLSCKASGYIFRNYWMHWVKQRPGQGLEWIGMIHPNSDITHYNEKFKNRATLTVDKSSSTAYMQLNSLTSEDSAVYYCARGGLGVFDYWGQGTALRVSS
notes: Also used biotinylated (4G1-biot) as detection antibody; also called 4G1 anti-PEP3 mAb; 4G1 mAb
minimal amount of gp41 detected [5]: ~1 ng/mL
EC50 [6]: 0.34 µg/mL

B3: anti-PEP3 mAb 8D5 (antibody, V domains shown)
VH: QVQLQQPGAELIEPGTSVKLSCKASGYTFTTYWMHWVKQRPGQGLEWIGMIHPNSGDTFYNENFKNKATLTVDISSSTVYMELSSLTSEDSAVYSCVKAGTGALDYWGQGTTLTVSS
VL: DVVMTQTPLSLPVSLGDQASISCRSSQSIVHSNRYTYLEWYLQRPGQSLKLLIYGVSNRFSGVPDRFSGSGSGTDFILKISRVEAEDMGVYYCFQGTHVPFTFGSGTKLEIK
ELISA screening signal [1]: 2.55
ELISA screening signal [2]: 2.58
ELISA screening signal [3]: 2.69
ELISA screening signal [4]: 2.51
minimal amount of gp41 detected [5]: ~1 ng/mL

B4: anti-PEP3 mAb 5E12 (antibody, V domains shown)
VH: QIQLVQSGPELKKPGETVKISCKASGYTFRTYGMSWVKQAPGKGLKWMGWINTYSGVPRYVDDFKGRFALSLETSASTAYLQINNLKSEDTATYFCVREGYSYYGSSFHTMDYWGQGTSVTVSS
VL: DIQMTQTPLTLSVTIGHPASISCKSSQSLLHTNGKIYLNWLLQRPGQSPKRLIYLVSKLDSGVPDRFSGSGSGTDFTLKISRVEAEDLGVYYCLQSTHFPQTFGGGTKLEIK
ELISA screening signal [1]: 2.71
ELISA screening signal [2]: 2.61
ELISA screening signal [3]: 3.21
ELISA screening signal [4]: 3

B5: anti-PEP3 mAb 9B12 (antibody, V domains shown)
VH: QVQLQQSGPELVKPGASVKISCKASGYGFSDSWMNWVKQRPGKGLDWIGRIYPGDGDTDYNGKFKDKATLTADKSSTTAYMQLSSLTSEDSAVYFCAYLGHWGQGTLVTVSA
VL: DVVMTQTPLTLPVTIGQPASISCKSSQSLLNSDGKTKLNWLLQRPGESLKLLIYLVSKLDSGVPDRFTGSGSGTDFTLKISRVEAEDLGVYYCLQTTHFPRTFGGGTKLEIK
ELISA screening signal [1]: 0.047
ELISA screening signal [2]: 0.054
ELISA screening signal [3]: 2.78
ELISA screening signal [4]: 2.79

B6: anti-PEP3 mAb 3A2 (antibody, V domains shown)
VH: QVQLQQPGAELVKPGASVKLSCKASGYIFTNYWMHWVRQRPGQGPEWIGMIHPNRGDLHYSEKFNNKATLTVDKSSSTAYMQLNSLASEDSAVYFCARAGLGVFDYWGQGSTLTVSS
VL: DVVMTQTPLSLPVSLGDQVSMSCRSSQSIEHSNRNTYLEWYLHKPGQAPQLLIYGVSNRFTGVPDRFSGSGSGTDFTLKISRVEAEDMGVYHCLQGTHVPFTFGSGTKLEIK
ELISA screening signal [1]: 2.75
ELISA screening signal [2]: 2.63
ELISA screening signal [3]: 3.06
ELISA screening signal [4]: 2.93
minimal amount of gp41 detected [5]: ~1 ng/mL
